Test results as given in publication PMC11162469, “Discovery of RXFP2 genetic association in resistant hypertensive men and RXFP2 antagonists for the treatment of resistant hypertension” (Scientific Reports, 2024).

How the values were obtained:
human LDLa-linker = target: T1, human LDLa-linker (Homo sapiens, UniProt Q8WXD0); assay: Biacore S200 binding to human LDLa-linker protein
T1 construct: human LDLa linker [huRXFP2-LDLa-linker(38-105)-ratFc-8XHIS]; enterokinase cleavage site (C); rat Fc (C, cleaved yes); 8xHis (C, cleaved yes); made in house; host or cells: Expi293
T1 sequence (Q8WXD0 38-105): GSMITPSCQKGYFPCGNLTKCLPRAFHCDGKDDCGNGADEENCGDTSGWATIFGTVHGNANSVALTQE
Procedure: Goat anti Rat Fc gamma fragment specific (Jackson Immunoresearch, 112-005-071) was immobilized at 30 µg/mL to a Series S CM5 chip (Cytiva Life Sciences). In three separate runs, twenty different purified recombinant rat anti RXFP2 antibodies were then captured to the CM5 chip at a concentration of 5 µg/mL. The antibody panel was captured; rat LDLa-linker or human LDLa-linker protein was flowed as analyte at the following concentrations: 20 nM, 10 nM, 5 nM, 2.5 nM, […], and 0 nM. Antibody kinetics were evaluated using a 1:1 fit model (Biacore S200).

[1] = Pharmacokinetic study of RXFP2 mAbs in rat; format: in vivo, Wistar Han rats
Procedure: For the pharmacokinetic study of RXFP2 mAbs in rat, 1G1, 2D4, 4B1, 4G6, 1F2, and 3F3 were prepared in phosphate buffered saline (0.100 mg/mL) with low endotoxin (≤ 0.76 EU/mL). Adult male Wistar Han rats (n = 3/mAb) were administered 1 mg/kg subcutaneously (10 mL/kg). Blood samples (100 µL) were collected in EDTA containing tubes at 0.25, 3, 6 24, 48, 96, 168 (day 7), 336 (day 14), 504 (day 21), and 672 (day 28) hours post dose, immediately centrifuged (6100 rpm), and 50 µL plasma stored at − 80 °C until assay. Rats maintained health throughout the study and were anesthetized (isoflurane to effect) and euthanized on day 28.
Frozen rat plasma samples were thawed and analyzed using a qualified analytical method based on sample dilution, followed by Electrochemiluminescence immunoassay analysis. The lower limit of quantification (LLQ) was 0.1 µg/mL using a 10 µL aliquot of 51-fold diluted rat plasma with a higher limit of quantification (HLQ) of 10 µg/mL. RXFP2 mAbs were captured with LDLa protein and detected with sulfo-tag labeled mouse anti-rat IgG2b. The computer systems that were used to acquire and quantify data included Gyrolab Workstation Version 8.1.5 and Watson LIMS version 7.6.1. Rat pharmacokinetic parameters were calculated by non-compartmental analysis (NCA) analysis using WinNonlin Phoenix 64 (version 8.3). Values are reported in mean ± standard deviation.

[2] = target: T2, human LDLa peptide (UnitProt Q8WXD0 43-80) (Homo sapiens, UniProt Q8WXD0); assay: ELISA binding to linker-less human LDLa peptide
T2 construct: human LDLa peptide (Q8WXD0 43-80)
T2 sequence (Q8WXD0 43-80 limits assumed): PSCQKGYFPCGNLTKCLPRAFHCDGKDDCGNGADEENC
Procedure: The human/rat RXFP2 cross reactive antibodies belong to two epitope bins and were further evaluated for binding to the linker-less human LDLa peptide (UnitProt Q8WXD0 43-80) by ELISA. […] The different domain requirements for binding are consistent with results from the binning experiment showing 4F6 and 4G6 are in a separate bin from 4B1.
Rat LDLa-linker_ratFc, human LDLa-linker_ratFc, or ratFc, or human LDLa peptide (Q8WXD0 43-80) was diluted to 1 µg/mL in 1X PBS and immobilized in separate 96-well ELISA plates (Nunc Maxisorp), 50 µL/well. The plates were then incubated overnight at 4 °C. The following day the plates were washed three times with ELISA wash buffer (PBS + 0.05% Tween-20) and then blocked with ELISA blocking buffer (PBS + 0.05% Tween-20 + 1% BSA), 200 µL/well, and incubated 1 h at room temperature on a shaker. Plates were again washed three times followed by the addition of the primary antibodies. Hybridoma supernatant was added neat, 50 µL/well; mouse serum was added 1:100 and then serially diluted 1:2 for 8 points, 50 µL/well. Purified antibodies were added 5 µg/mL in the first well and serially diluted down the plate 1:2 for 8 points, 50 µL/well. Primary antibody was incubated for 1 h at room temperature on a shaker. […] Stopping solution (2N Sulfuric acid) was added to the plates 50 µL/well, and then read on a plate reader (SpectraMax Molecular Devices) at 450 nm.

rat RXFP2 [3] = target: T3, rat RXFP2 (Rattus norvegicus, UniProt F7EMH8); assay: INSL3-stimulated CYP11B1 mRNA expression in H295R stably expressing rat RXFP2; format: cell-based; design: expressed in transfected cells; conditions: INSL3 EC80 (3.5 nM), 48 h, qPCR; N = 2
T3 sequence (F7EMH8 20-737): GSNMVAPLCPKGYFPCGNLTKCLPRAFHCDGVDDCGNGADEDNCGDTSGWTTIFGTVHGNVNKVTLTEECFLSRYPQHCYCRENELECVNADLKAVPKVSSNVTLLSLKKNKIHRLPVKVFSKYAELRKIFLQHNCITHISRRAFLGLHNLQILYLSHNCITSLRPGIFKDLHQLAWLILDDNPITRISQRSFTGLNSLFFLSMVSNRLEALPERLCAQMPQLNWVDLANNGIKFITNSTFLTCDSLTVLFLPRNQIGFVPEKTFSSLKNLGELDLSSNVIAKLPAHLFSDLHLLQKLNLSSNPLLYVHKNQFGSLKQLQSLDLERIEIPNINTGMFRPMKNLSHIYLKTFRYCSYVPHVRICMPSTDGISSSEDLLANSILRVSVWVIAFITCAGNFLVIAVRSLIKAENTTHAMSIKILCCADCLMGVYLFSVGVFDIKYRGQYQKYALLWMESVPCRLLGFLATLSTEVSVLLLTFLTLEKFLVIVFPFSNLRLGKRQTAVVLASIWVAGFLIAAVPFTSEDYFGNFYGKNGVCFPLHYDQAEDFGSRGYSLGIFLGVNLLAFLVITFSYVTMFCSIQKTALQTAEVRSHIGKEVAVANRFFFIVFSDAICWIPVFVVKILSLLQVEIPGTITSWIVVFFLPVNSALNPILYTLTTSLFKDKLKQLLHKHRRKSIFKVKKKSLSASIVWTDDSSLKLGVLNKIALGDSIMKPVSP
Procedure: (§1) RXFP2 antagonists were added to H295R-rRXFP2 before addition of INSL3 EC80 (3.5 nM) for 48 h, whereupon the cells and supernatants were collected. CYP11B1 and CYP11B2 mRNA were determined by qPCR and the RXFP2 blocker potencies were calculated (Fig. 5a). Fifteen antibodies have IC50s < 50 nM, and three of the top antibodies (1F2, 4G6, and 2D4) were selected for evaluation in steroid hormone secretion assays by ELISA.
(§2) Data entered as XY table, with x = [Inhibitor] (nM) and y = CYP11B2 or CYP11B1 fold change.

rat RXFP2 [4] = target: T3, rat RXFP2; assay: INSL3-stimulated CYP11B2 mRNA expression in H295R stably expressing rat RXFP2; format: cell-based; design: expressed in transfected cells; conditions: INSL3 EC80 (3.5 nM), 48 h, qPCR; N = 2
Procedure: as §1, §2

human RXFP2 = human RXFP2 (Homo sapiens, UniProt Q8WXD0); assay: INSL3-stimulated cAMP assay in HEK293 stably expressing human RXFP2
Sequence of human RXFP2 (Q8WXD0 whole entry): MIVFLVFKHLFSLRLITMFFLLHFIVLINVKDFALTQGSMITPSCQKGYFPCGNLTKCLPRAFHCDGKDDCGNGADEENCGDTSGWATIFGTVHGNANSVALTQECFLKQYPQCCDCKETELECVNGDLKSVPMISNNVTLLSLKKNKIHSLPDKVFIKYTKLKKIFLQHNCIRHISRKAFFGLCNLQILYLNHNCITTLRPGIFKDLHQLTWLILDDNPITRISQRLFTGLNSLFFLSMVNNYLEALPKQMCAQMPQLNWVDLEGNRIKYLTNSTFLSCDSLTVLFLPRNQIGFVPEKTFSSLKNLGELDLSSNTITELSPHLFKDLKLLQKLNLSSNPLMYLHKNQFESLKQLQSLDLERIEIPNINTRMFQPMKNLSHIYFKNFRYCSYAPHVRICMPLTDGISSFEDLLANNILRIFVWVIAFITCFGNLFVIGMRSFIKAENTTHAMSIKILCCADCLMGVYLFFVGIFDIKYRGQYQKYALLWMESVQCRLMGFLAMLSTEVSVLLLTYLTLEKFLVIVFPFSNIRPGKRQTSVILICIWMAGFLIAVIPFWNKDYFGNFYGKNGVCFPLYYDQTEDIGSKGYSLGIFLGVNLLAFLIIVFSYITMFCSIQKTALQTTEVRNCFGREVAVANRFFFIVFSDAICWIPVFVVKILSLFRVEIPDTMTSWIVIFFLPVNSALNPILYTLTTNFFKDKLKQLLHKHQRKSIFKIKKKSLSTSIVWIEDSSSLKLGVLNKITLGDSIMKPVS

[5] = male Wistar Han rats, 1 mg/kg s.c., n = 3, mean ± SD

B1: 4G6: Human/rat cross-reactive RXFP2 monoclonal antibody, rat IgG2b backbone; binds the LDLa domain (antibody, V domains shown)
VH: EVQLQQSGPELVKPGASVKLSCKASGYTFTSYVMHWVKQKPEQGLEWIGYKNPSNDGIKYNEKFKGKATLTSDKSSNIAYMELFSLTSEDSAVYYCARSDFGSVWAMDYWGQGTSVTVSS
VL: SIVMTQTPKFLLVSAGDRVTITCKASQSVNDDIVWYQQKPGQSPKLLIYYASNRYTGVPDRFTGSGYGTDFTFTISTVQAGDLAVYFCQQDYSSPFTFGSGTKLEIK
- cross reactivity to the human LDLa-linker (human LDLa-linker): cross reactivity
- half-life, extrapolated values ([1]; Wistar Han rats, 1 mg/kg sc., over 28 days): ≥ 11 days
- estimated dose to achieve tenfold higher IC50 HEK-rRXFP2 cAMP activity for approximately 28 days in rat ([1]; from trough concentration, dose-linearity assumed): approximately 30 mg/kg
- AUClast [1, 5]: 1350 ± 125 µg·h/mL
- Cmax [1, 5]: 4150 ± 1200 ng/mL
- Tmax [1, 5]: 224 ± 97 h
- binding to linker-less human LDLa peptide [2]: bind
- IC50 (rat RXFP2 [3]): 0.33 nM
- IC50 (rat RXFP2 [4]): 0.1 nM
- blockade of hRXFP2 (human RXFP2; INSL3-stimulated cAMP, HEK293-hRXFP2): strong blockade
- HEK293-human RXFP2 cAMP % Max Response (human RXFP2; INSL3 EC80-stimulated cAMP, stable expression, N = 2): 84.5%
- IC50 (human RXFP2; read-out: HEK293-human RXFP2 cAMP IC50, INSL3 EC80-stimulated cAMP, stable expression, N = 2): 15.6 nM
